Consider 33 molecules from patent US20240002497A1 (Merck Sharp & Dohme, published 2024).

Assay [1] addresses T1, huNav1.7α+β1 (human, UniProt Q15858 1-1988; Q07699 19-218).
T1 construct: also called huNav1.7-beta1; HEKa/β1
The assay can be described thus: binding FACS, HEKa/β1 cells. On the procedure:
(§1) Binding of the ISVDs to cell-expressed Nav1.7α was detected via murine anti-Flag (Sigma, catalog #F1804). Briefly, cells were resuspended in FACS buffer (PBS, 10% FBS, NaN₃) and transferred to a 96-well V-bottom plate at 1×10^5 cells/well. Purified FLAG3-tagged ISVD was diluted in FACS buffer and added to the cells for 30 minutes at 4° C. […] Prior to the read-out, the samples were resuspended in 1 μg/mL propidium iodide (Sigma, catalog #P4170) to exclude dead cells. Between each step, the cells were centrifuged for 5 minutes at 200 grams and washed with 100 μL/well FACS buffer.

Assay [2] deals with T2, huNav1.7α + β1 (HEKa/β1) (human, UniProt Q15858 1-1988; Q07699 19-218).
T2 construct: also called HEKa/β1 huNav1.7α
Kind of assay: binding FACS, HEKa/β1 cells. Here is the method: as §1

Assay [3] deals with T3, huNav1.7α + β1-β2-β3 (human, UniProt Q15858 1-1988; A5A6L6 19-218; O60939 30-215; Q2KI11 23-215).
T3 construct: Cell line (CHO FlpIn, HEK FlpIn, transient HEK293T) is named under assay; also called huNav1.7-beta1-beta2-beta3; human Nav1.7α with Navβ1, Navβ2 and Navβ3
Kind of assay: binding FACS, CHO FlpIn cells. A digest of the protocol: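 Flow cytometry read-out of anti-Flag signal on propidium iodide-negative cells measured ISVD binding. Purified FLAG3-tagged ISVD, diluted in PBS with 10% FBS and NaN₃, was applied to the cells for 30 minutes at 4° C.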

Where a chain is given by its changes, count along the chain named. In names and notes the source's numbering stands.

B1: F010301055 (VHH)
VHH: EVQLVESGGGLVQPGGSLRLSCAASGMLFNANTQGWYRQAPGKQRELVAFIFWGGYVNYVDSVKGRFTISRDNAKRTMYLQMNSLKPEDSAIYYCSLSRYLGQGTLVTVSS
notes: vs F0103265A11: S53W, T57V
For B1, in assay [1], the “Bmax relative to '535” value was 117% and a half-maximal effect (EC50) was put at 4.4 nM.

B2: F010301188 (VHH)
VHH: B1 VHH with A31R, W53S, V57T, V60N, L101Q
notes: vs F0103265A11: A31R, V60N, L103Q
With B2, in assay [1], the “Bmax relative to '535” value was 104% and it took 5.1 nM to reach a half-maximal effect (EC50).

B3: F010301138 (VHH)
VHH: B1 VHH with N30Y, W53S, V57T, V60N, S96A, L101Q
notes: vs F0103265A11: N30Y, V60N, S93A, L103Q
For the molecule B3, in assay [1], the “Bmax relative to '535” value was found to be 107% and the concentration for a half-maximal effect (EC50) was found to be 9.7 nM.

B4: F010301232 (VHH)
VHH: B1 VHH with A31R, W53S, V57T, N58T, S96A, L101Q
notes: vs F0103265A11: A31R, N58T, S93A, L103Q
With B4, in assay [1], the “Bmax relative to '535” value was 112% and the EC50 was 9.3 nM.

B5: F010301113 (VHH)
VHH: B1 VHH with A31R, W53S, V57T, V60N, R99V, L101Q
notes: vs F0103265A11: A31R, V60N, R101V, L103Q
With B5, in assay [1], the “Bmax relative to '535” value came out at 111% and the EC50 turned out to be 5.7 nM.

B6: F010301099 (VHH)
VHH: B1 VHH with W53S, Y56W, N58T
notes: vs F0103265A11: Y56W, T57V, N58T
In the case of B6, in assay [1], the “Bmax relative to '535” value was found to be 87% and the EC50 worked out at 7.4 nM.

B7: F010301059 (VHH)
VHH: B1 VHH with W53S, V60N, S96A, L101Q
notes: vs F0103265A11: T57V, V60N, S93A, L103Q
As for B7, in assay [1], the “Bmax relative to '535” value came out at 99% and a half-maximal effect (EC50) was put at 5.4 nM.

B8: F010301126 (VHH)
VHH: B1 VHH with A31R, W53S, N58T, V60N
notes: vs F0103265A11: A31R, T57V, N58T, V60N
As for B8, in assay [1], the “Bmax relative to '535” value was determined as 118% and the EC50 amounted to 5.6 nM.

B9: F010301139 (VHH)
VHH: B1 VHH with A31R, I51W, W53S, V60N, L101Q
notes: vs F0103265A11: A31R, I51W, T57V, V60N, L103Q
With B9, in assay [1], the “Bmax relative to '535” value is 117% and the midpoint of the response, the EC50, lay at 4.7 nM.

B10: F010301175 (VHH)
VHH: B1 VHH with A31R, W53S, V57T, N58T
notes: vs F0103265A11: A31R, N58T
As for B10, in assay [1], the “Bmax relative to '535” value amounted to 111% and the EC50 was 5.4 nM.

B11: F010301111 (VHH)
VHH: B1 VHH with W53S, V60N, S96A
notes: vs F0103265A11: T57V, V60N, S93A
In the case of B11, in assay [1], the “Bmax relative to '535” value was 99% and the EC50 stood at 5.4 nM.

B12: F010301567 (VHH)
VHH: EVQLVESGGGLVQAGGSLRLSCAASVRPYSTSAMGWFRQAPEKEREAVAGILWNGIVTYYADSVKGRFTISRDNAKNEVYLQMNKLKPEDTAVYYCALDRDYGGRSFSAYEYEYWGQGTLVTVSS
notes: F29Y vs F0103362B08 (Kabat)
Consider B12, for which the EC50 in assay [2] amounted to 24 nM; in assay [3], 110 nM.

B13: F010301594 (VHH)
VHH: B12 VHH with Y29F, R105K
notes: R100aK vs F0103362B08 (Kabat)
Consider B13, for which the results for the EC50 in assay [2] and in assay [3] were 29 nM and 110 nM, respectively.

B14: F010301596 (VHH)
VHH: B12 VHH with Y29F, G103A
notes: G99A vs F0103362B08 (Kabat)
Regarding B14, the figures for the EC50 in assay [2] and in assay [3] were 50 nM and 140 nM, respectively.

B15: F010301612 (VHH)
VHH: B12 VHH with Y29F, Y110T
notes: Y100fT vs F0103362B08 (Kabat)
On to B15, for which the EC50 was 44 nM in assay [2] and 170 nM in assay [3].

B16: F010301584 (VHH)
VHH: B12 VHH with Y29F, W53T
notes: W52aT vs F0103362B08 (Kabat)
Turning to B16, the EC50 in assay [2] was determined as 42 nM; in assay [3] it was 110 nM.

B17: F010301589 (VHH)
VHH: B12 VHH with Y29F, I56P
notes: I55P vs F0103362B08 (Kabat)
B17: the EC50 amounted to 41 nM in assay [2] and 120 nM in assay [3].

B18: F010301568 (VHH)
VHH: B12 VHH with Y29F, G35T
notes: G35T vs F0103362B08 (Kabat)
Turning to B18, the concentration for a half-maximal effect (EC50) turned out to be 110 nM in assay [2] and 310 nM in assay [3].

B19: F010301595 (VHH)
VHH: B12 VHH with Y29F, D101A
notes: D97A vs F0103362B08 (Kabat)
B19: the results for the EC50 in assay [2] and in assay [3] were 17 nM and 62 nM, respectively.

B20: F010301591 (VHH)
VHH: B12 VHH with Y29F, G103K
notes: G99K vs F0103362B08 (Kabat)
B20: the EC50 in assay [2] is 43 nM; in assay [3], 93 nM.

B21: F010301593 (VHH)
VHH: B12 VHH with Y29F, R100K
notes: R96K vs F0103362B08 (Kabat)
In the case of B21, the EC50 was determined as 40 nM in assay [2] and 110 nM in assay [3].

B22: F010301578 (VHH)
VHH: B12 VHH with Y29F, S30G
notes: S30G vs F0103362B08 (Kabat)
For the molecule B22, the figures for the EC50 in assay [2] and in assay [3] were 30 nM and 120 nM, respectively.

B23: F010301609 (VHH)
VHH: B12 VHH with Y29F, Y110Q
notes: Y100fQ vs F0103362B08 (Kabat)
Regarding B23, the results for the concentration for a half-maximal effect (EC50) in assay [2] and in assay [3] were 37 nM and 190 nM, respectively.

B24: F010301580 (VHH)
VHH: B12 VHH with R27T, Y29F
notes: R27T vs F0103362B08 (Kabat)
Take B24: the EC50 amounted to 35 nM in assay [2] and 180 nM in assay [3].

B25: F010301579 (VHH)
VHH: B12 VHH with R27K, Y29F
notes: R27K vs F0103362B08 (Kabat)
On to B25, for which the EC50 in assay [2] amounted to 36 nM; in assay [3], 130 nM.

B26: F010301598 (VHH)
VHH: B12 VHH with Y29F, G103Q
notes: G99Q vs F0103362B08 (Kabat)
Consider B26, for which the figures for the EC50 in assay [2] and in assay [3] were 29 nM and 89 nM, respectively.

B27: F010301606 (VHH)
VHH: B12 VHH with Y29F, Y110K
notes: Y100fK vs F0103362B08 (Kabat)
Consider B27, for which the results for the EC50 in assay [2] and in assay [3] were 24 nM and 65 nM, respectively.

B28: F010301586 (VHH)
VHH: B12 VHH with Y29F, W53A
notes: W52aA vs F0103362B08 (Kabat)
In the case of B28, the EC50 was 51 nM in assay [2] and 170 nM in assay [3].

B29: F010301607 (VHH)
VHH: B12 VHH with Y29F, Y110A
notes: Y100fA vs F0103362B08 (Kabat)
Consider B29, for which the concentration giving a half-maximal response (EC50) amounted to 30 nM in assay [2] and 90 nM in assay [3].

B30: F010301592 (VHH)
VHH: B12 VHH with Y29F, R105S
notes: R100aS vs F0103362B08 (Kabat)
Consider B30, for which the EC50 in assay [2] came to 67 nM; in assay [3] it was 200 nM.

B31: F010301574 (VHH)
VHH: B12 VHH with Y29F, G35A
notes: G35A vs F0103362B08 (Kabat)
B31: the EC50 in assay [2] is 29 nM; in assay [3], 100 nM.

B32: F010301604 (VHH)
VHH: B12 VHH with Y29F, R105Q
notes: R100aQ vs F0103362B08 (Kabat)
In the case of B32, the values for the EC50 in assay [2] and in assay [3] were 52 nM and 190 nM, respectively.

B33: F010301585 (VHH)
VHH: B12 VHH with Y29F, V57P
notes: V56P vs F0103362B08 (Kabat)
Regarding B33, the EC50 in assay [2] was 53 nM; in assay [3], 110 nM.

Usually EC50 stands for the concentration at which the effect is half-maximal.
